Experimental data from paper PMC7537107 (Journal of neurochemistry, 2019).

B1: HA-tagged spinophilin, full length (amino acids 1-817, fragment A) (natural protein)
chain: not shown
B2: V5-tagged GluN2B C-terminal, cytosolic tail (amino acids 839-1484) (domain or fragment, human, UniProt Q13224 839-1484, looked up)
chain: EHLFYWQFRHCFMGVCSGKPGMVFSISRGIYSCIHGVAIEERQSVMNSPTATMNNTHSNILRLLRTAKNMANLSGVNGSPQSALDFIRRESSVYDISEHRRSFTHSDCKSYNNPPCEENLFSDYISEVERTFGNLQLKDSNVYQDHYHHHHRPHSIGSASSIDGLYDCDNPPFTTQSRSISKKPLDIGLPSSKHSQLSDLYGKFSFKSDRYSGHDDLIRSDVSDISTHTVTYGNIEGNAAKRRKQQYKDSLKKRPASAKSRREFDEIELAYRRRPPRSPDHKRYFRDKEGLRDFYLDQFRTKENSPHWEHVDLTDIYKERSDDFKRDSVSGGGPCTNRSHIKHGTGDKHGVVSGVPAPWEKNLTNVEWEDRSGGNFCRSCPSKLHNYSTTVTGQNSGRQACIRCEACKKAGNLYDISEDNSLQELDQPAAPVAVTSNASTTKYPQSPTNSKAQKKNRNKLRRQHSYDTFVDLQKEEAALAPRSVSLKDKGRFMDGSPYAHMFEMSAGESTFANNKSSVPTAGHHHHNNPGGGYMLSKSLYPDRVTQNPFIPTFGDDQCLLHGSKSYFFRQPTVAGASKARPDFRALVTNKPVVSALHGAVPARFQKDICIGNQSNPCVPNNKNPRAFNGSSNGHVYEKLSSIESDV

Columns and labels:
[1] = target: B2; experiment: co-IP
[2] = target: B1; experiment: co-IP

Row | fold change of co-IP with IBMX/forskolin against vehicle (V5 IP) [1] | fold change of co-IP with PKAc overexpressed against without (GluN2B_(Tail) IP) [1] | fold change of co-IP with IBMX/forskolin against vehicle (HA IP) [2] | fold change of co-IP with PKAc overexpressed against without (spinophilin IP) [2] | Binder
1 | 3.05 ratio to control | 10.6 ratio to control |  |  | B1
2 |  |  | 1.48 ratio to control | 2.14 ratio to control | B2
